To fix the notation:
B1: r16_88_TrROS_Hall (parent)
chain: EVIELKIKFKTPEQREKLKEIAKKLNAEVVEEKDGEVIIRFKTPEQAERALKEAEKLGAEVEL

This is an account of results in the MegaScale stability set (Tsuboyama et al. 2023).

The series covers variants of B1. The series is described as follows: folding stability dG (cDNA display proteolysis); higher = more stable. The following applies: PBS, room temperature.
For the variant EVIELKIKFKTPEQREKLCEIAKKLNAEVVEEKDGEVIIRFKTPEQAERALKEAEKLGAEVEL, the “folding stability dG” value worked out at 4.22 kcal/mol.

On to EVIELKIKFKTPEQREKLKEIAKKLNAEVVEEKDGEVIIRFKTPEQAERALKEAEKLGAEVED, for which the “folding stability dG” value worked out at 4.33 kcal/mol.

On to EVQELKIKFKTPEQREKLKEIAKKLNAEVVEEKDGEVIIRFKTPEQAERALKEAEKLGAEVEL, for which the “folding stability dG” value came to 4.76 kcal/mol.

On to EVIELKIKFNTPEQREKLKEIAKKLNAEVVEEKDGEVIIRFKTPEQAERALKEAEKLGAEVEL, for which the “folding stability dG” value turned out to be 4.22 kcal/mol.

Turning to EVIELKIKFKTPENREKLKEIAKKLNAEVVEEKDGEVIIRFKTPEQAERALKEAEKLGAEVEL, the “folding stability dG” value stood at 4.47 kcal/mol.

Take EVIELKIKFKTPEMREKLKEIAKKLNAEVVEEKDGEVIIRFKTPEQAERALKEAEKLGAEVEL: the “folding stability dG” value came to 4.43 kcal/mol.

For EVIELKIKFKTPEGREKLKEIAKKLNAEVVEEKDGEVIIRFKTPEQAERALKEAEKLGAEVEL, the “folding stability dG” value came to 4.33 kcal/mol.

For EVIELKIKFKTPEQREKLKEIAKKLNAEVVEEKDGEVIIRFKTPEQAERALKEAEKRGAEVEL, the “folding stability dG” value was 3.57 kcal/mol.

Regarding EVIELKIKFKTPEQREKLKEIAKKLNAEVVEEKWGEVIIRFKTPEQAERALKEAEKLGAEVEL, the “folding stability dG” value worked out at 4.32 kcal/mol.

Consider EVIELKIKFKTPEQREKLKEIAKKLNAEVVEEKNGEVIIRFKTPEQAERALKEAEKLGAEVEL, for which the “folding stability dG” value stood at 4.3 kcal/mol.

EVIELKIKFKTPEQREKLKEIAKKLNAEVVEEKGGEVIIRFKTPEQAERALKEAEKLGAEVEL: the “folding stability dG” value was found to be 4.46 kcal/mol.

With EVIELKIKFKTPEQREKLKEIAKKLNAEVVEEKDGEVIIRFKTPEQAERATKEAEKLGAEVEL, the “folding stability dG” value came out at 4.76 kcal/mol.

EVIELKIKFKTPEQREKLKEIAKKLNAEVVEEIDGEVIIRFKTPEQAERALKEAEKLGAEVEL: the “folding stability dG” value stood at 4.27 kcal/mol.

On to EVIELKIKFKTPEQREKLKEIAKKLNAEVVEECDGEVIIRFKTPEQAERALKEAEKLGAEVEL, for which the “folding stability dG” value stood at 4.42 kcal/mol.

For the variant EVIELKIKFKTPEQREKLKEIAKKLNAEVVEEADGEVIIRFKTPEQAERALKEAEKLGAEVEL, the “folding stability dG” value is 4.37 kcal/mol.

Consider EVIELKIKFKTPEQREKLKEIAKKLNAEVVEEFDGEVIIRFKTPEQAERALKEAEKLGAEVEL, for which the “folding stability dG” value came out at 4.42 kcal/mol.

For EVIESKIKFKTPEQREKLKEIAKKLNAEVVEEKDGEVIIRFKTPEQAERALKEAEKLGAEVEL, the “folding stability dG” value came to 3.94 kcal/mol.

In the case of EVIENKIKFKTPEQREKLKEIAKKLNAEVVEEKDGEVIIRFKTPEQAERALKEAEKLGAEVEL, the “folding stability dG” value came to 3.85 kcal/mol.

In the case of EVIELKIKFKTPEQREKLKEIAKKLNAEVVEEKDGEVIIRFKTMEQAERALKEAEKLGAEVEL, the “folding stability dG” value was determined as 4.59 kcal/mol.

Regarding EVIELKIKFKTPEQREKLKEIAKKLNAEVVEEKDGEVIIRFKTWEQAERALKEAEKLGAEVEL, the “folding stability dG” value is 4.58 kcal/mol.

EVIELKIKFKTPEQGEKLKEIAKKLNAEVVEEKDGEVIIRFKTPEQAERALKEAEKLGAEVEL: the “folding stability dG” value was determined as 3.95 kcal/mol.

EVIELKIKFKTPEQREKLKEIAKNLNAEVVEEKDGEVIIRFKTPEQAERALKEAEKLGAEVEL: the “folding stability dG” value is 4.46 kcal/mol.

As for EVIELKIYFKTPEQREKLKEIAKKLNAEVVEEKDGEVIIRFKTPEQAERALKEAEKLGAEVEL, the “folding stability dG” value came to 4.61 kcal/mol.

Regarding EVIELKITFKTPEQREKLKEIAKKLNAEVVEEKDGEVIIRFKTPEQAERALKEAEKLGAEVEL, the “folding stability dG” value was found to be 4.33 kcal/mol.

EVIELKIHFKTPEQREKLKEIAKKLNAEVVEEKDGEVIIRFKTPEQAERALKEAEKLGAEVEL: the “folding stability dG” value amounted to 4.25 kcal/mol.

For the variant EVIELKIKFKTPEQREKLKEIAKKLNAEVVEEKDGEVIIRFKTPEQAERALKEAEKLFAEVEL, the “folding stability dG” value came to 4.24 kcal/mol.

With EVIELKIKFKTPEQREKLKEIAKKLNAEVVEEKDGEVIIRFKTPEQAERALKEAEKLSAEVEL, the “folding stability dG” value worked out at 4.43 kcal/mol.

As to EVIELKIKFKTPEQREKLKEIAKKLNAEVVEEKDGEVIIRFKTPEQAERALKEAEKLGAAVEL, the “folding stability dG” value was 4.12 kcal/mol.

As to EVIELKIKFKTPEQREKLKEIAKKLNAEVVEEKDGEVIIRFKTPEQAERALKEAEKLGAKVEL, the “folding stability dG” value stood at 4.38 kcal/mol.

On to EVIELKIKFKTPEQREKLKEIAKKLNAEVVEEKDGEVIIRFKTPEQEERALKEAEKLGAEVEL, for which the “folding stability dG” value was found to be 4.18 kcal/mol.

In the case of EVIELKIKFKTPEQREKLKEIAKKLNAEVVEEKDGEVIIRFKTPEQQERALKEAEKLGAEVEL, the “folding stability dG” value was 4.8 kcal/mol.

Consider EVIELKIKFKTPEQREKLKEIAKKLNAEVVEEKDGEVIIRFKTPRQAERALKEAEKLGAEVEL, for which the “folding stability dG” value stood at 4.37 kcal/mol.

For EVIELKIKFKTPEQREKLKEIAKKLNAEVVEEKDGEVIIRFKTPSQAERALKEAEKLGAEVEL, the “folding stability dG” value came out at 4.29 kcal/mol.

For EVIELKIKFKTPEQREKLKEIAKKLNAEVVEEKDGEVIIRFKTPQQAERALKEAEKLGAEVEL, the “folding stability dG” value came to 4.38 kcal/mol.

As to EVIELKIKDKTPEQREKLKEIAKKLNAEVVEEKDGEVIIRFKTPEQAERALKEAEKLGAEVEL, the “folding stability dG” value worked out at 3.45 kcal/mol.

On to EVIELKIKAKTPEQREKLKEIAKKLNAEVVEEKDGEVIIRFKTPEQAERALKEAEKLGAEVEL, for which the “folding stability dG” value amounted to 4.06 kcal/mol.

Turning to EVIELKIKFKTPEQREKLKEIAKKLNAMVVEEKDGEVIIRFKTPEQAERALKEAEKLGAEVEL, the “folding stability dG” value was found to be 4.17 kcal/mol.

EVIELKIKFKTPEQREKLKEIAKKLNAWVVEEKDGEVIIRFKTPEQAERALKEAEKLGAEVEL: the “folding stability dG” value came to 4.53 kcal/mol.

EVIELKIKFKTPEQREKLKEIAKKLNAVVVEEKDGEVIIRFKTPEQAERALKEAEKLGAEVEL: the “folding stability dG” value came to 4.41 kcal/mol.

Turning to EVIELKIKFKTCEQREKLKEIAKKLNAEVVEEKDGEVIIRFKTPEQAERALKEAEKLGAEVEL, the “folding stability dG” value amounted to 4.54 kcal/mol.

As to EVIELKIKFKTPEQREKLKEIAKKANAEVVEEKDGEVIIRFKTPEQAERALKEAEKLGAEVEL, the “folding stability dG” value worked out at 4.05 kcal/mol.

Regarding EVIELKIKFKTPEQREKLKEIAKKWNAEVVEEKDGEVIIRFKTPEQAERALKEAEKLGAEVEL, the “folding stability dG” value amounted to 4.85 kcal/mol.

As to EVIELKIKFKTPEQREKLKEIAKKLNAEVVEEKDGEVIIRFKVPEQAERALKEAEKLGAEVEL, the “folding stability dG” value was found to be 4.27 kcal/mol.
